Laboratory results from the DeepSol protein solubility set.

Assay: soluble on expression in E. coli; label from the status in PepcDB or PDB records

| Sequence | soluble on expression in E. coli |
| --- | --- |
| MGSDKIHHHHHHMAVGTTKMAQMLDPEVLADMIDAEVGKAIRFAPLAEVDTTLEGQPGTTLTVPKWDYIGDAEDVAEGEAIPMTQLGFKKTTMTIKKAGKGVEITDEAILSGYGDPVGQAAKQIVEAIDHKVDADVLDALSKSTQTVEATATVDGVSKALDIFNDEDDAETVIVMNPADASTLRLDAAKEWLGATEVGANRVVSGVYGEVLGVQIVRSRKCPKGTAYMVRKGALRIMLKRNTMVETDRDITKAINQIVANKHYGVYLYKAEKAVKITLKDAAKK | not soluble |
| MGSDKIHHHHHHMLKELHLQQVGPAAHFDVAFADRLNIFTGDNGLGKSFLLDIAWWVMTTNWAEQPAYPQRVKGENPQITAVVSNKKNIREYQSQFDFSEQQWRNLQMPPLLKEVVIYVRVDGSFSIFDPARQRDIAYNFNPNTLWNGLKSKDKVICNGLIQDWVTWQNQPNKYPFELFSNVIKKLAPHPSEWIEVGETTRVSIEDVRDIPTVNLPYGNVPVTQTSAGMKRILGLAYLLVWTWYEHKKASELRQQKPVNQIVLLIDEIESHLHPRWQRVILPAILSVVTELQPRMKIQALVTTHSPLILASLEPNFHEQEDKLFLFKLQDSEVSLDEVPWSKQGDIVGWLTSDIFGLKQARSKEAEIAIEAAEAWMRDDDMNTFPENLRISTQIHQELQRVLPGHDPFWPRWIVTTEKRNSGLSGV | not soluble |
| PGAKVRVFHLLPFRREDLVPEEVLASVRDYLRTTKEQGLTMRVAMHGGNTEGDFSVSTAQALKGLFANEGIPLEFDETCANRTSETLLGAVILDDNSTHFIKHLVAQ | not soluble |
| MAITAKNAQLYGLDLELGLETGLAADVDNDSMSGLVLVELLSPYHQLETRFKLESQTALAFQAMADSAAKDGIKLAICSAYRPFDRQLAIWNAKASGKRVVLDINEQPVDITPLSESELVDLILLWSALPGASRHHWGTDIDVFDAEKIEVKSLRLVEAEYRDGGPCAQLHQWLVANAKDFGFYFPFQRGQSAVSAEPWHISYFPVSQILLPQFEVQALTQIIAHSDMLLKDAVLARLPELVAEYVHRIAQP | soluble |
| MAKSSSLNVRVVEGRALPAKDVSGSSDPYCLVKVDDEVVARTATVWRSLGPFWGEEYTVHLPLDFHQLAFYVLDEDTVGHDDIIGKISLSREAITADPRGIDSWINLSRVDPDAEVQGEICLSVQMLEDGQGRCLRCHVLQARDLAPRDISGTSDPFARVFWGSQSLETSTIKKTRFPHWDEVLELREMPGAPSPLRVELWDWDMVGKNDFLGMVEFSPKTLQQKPPKGWFRLLPFPRAEEDSGGNLGALRVKVRLIEDRVLPSQCYQPLMELLMESVQGPAEEDTASPLALLEELTLGDCRQDLATKLVKLFLGRGLAGHFLDYLTRREVARTMDPNTLFRSNSLASKSMEQFMKLVGMPYLHEVLKPVISRVFEEKKYMELDPCKMDLGRTRRISFKGALSEEQMRETSLGLLTGYLGPIVDAIVGSVGRCPPAMRLAFKQLHRRVEERFPQAEHQQDVKYLAISGFLFLRFFAPAILTPKLFDLRDQHADPQTSRSLLLLAKAVQSIGNLGQQLGQGKELWMAPLHPFLLQCVSRVRDFLDRLVDVDGDEEAGVPARALFPPSAIVREGYLLKRKEEPAGLATRFAFKKRYVWLSGETLSFSKSPEWQMCHSIPVSHIRAVERVDEGAFQLPHVMQVVTQDGTGALHTTYLQCKNVNELNQWLSALRKASAPNPNKLAACHPGAFRSARWTCCLQAERSAAGCSRTHSAVTLGDWSDPLDPDAEAQTVYRQLLLGRDQLRLKLLEDSNMDTTLEADTGACPEVLARQRAATARLLEVLADLDRAHEEFQQQERGKAALGPLGP | soluble |
| MGSDKIHHHHHHMVQNTFSDFDVSGFWDDSAYSIEEYVEETPTDALIDSIEQELGYKLPASYIELMKQHNGGTPVNCCFPVTEETSGTEYHVEISGIMGIGRSKTYSLGGSFGSRFMIDEWGYPDTGIYVCTCPSAGHEMILLDYSICGPKGEPQVFYVDQEREYQKTFLAKDFETFIRGLVHADVYDTSAQDLISTLETFRTGNFSEVLQAYIKKDLSVNFDRVLRNLFTELTTEKGYFALHADELSYLSYDIQFYLLSINRKIKSKEDFVKHYLPMVAMSDAGITTGGYANFFEDWFDEKIKSKEITKGLLSGFLFTEIYKQKLFERIKQYDK | not soluble |
| MTWQVQRRKWKLNLIAELESRVLAEPVPLPADPMELKNLEYRPVKVRGCFDHSKELYMMPRTMVDPVREAREGGLISSSTQSGAYVVTPFHCTDLGVTILVNRGFVPRKKVNPETRQKGQIEGEVDLIGMVRLTETRQPFVPENNPERNHWHYRDLEAMARITGAEPIFIDANFQSTVPGGPIGGQTRVTLRNEHLQYIVTWYGLSAATSYLWFKKFLRGTPGV | not soluble |
| MMKFDWNNPYPSTRIPVFARNVVATSHPLAAQAGLRILALGGNAADAAVASAATLALVEPASNGLGSDCFALVWDGARLHGLNASGTAPAAWSPGYFQRKHQGAIPLRGWDSVTIPGCVAGWASLHDKLGSLPFADVLAPAIEYAERGFAVPPTVQRRWADQVDPLRSLPGFAEHFLPHGRAPEVGEHFVLAGAAATLRRIAASGGRDFYEGETAQKLVAHAQAHEAALTLGDLRDYAPQWVEPISQAYRGHALHQLPPNGQGLAALIALGIVEHFDLASRPAEHPDTQHILIEAMKLAFADVHAHVADAAHIRIRVEQLLDPAYLAERARLIDLRRARVYNAAQAPQGGTVYLACADRNGMMVSFTQSNYMGFGSGIVVPGTGISLQNRGCCFSMDPDHPNVVGGGKRPFHTGIPAFLTQDGAPLMSFGIMGGNMQPQGHLQALVRMLDYRQQPQAACDAPRWKWNRGLSVDIEAAMPAQVTDALRARGHIVEVAAPADKDFGSGQFIWRLGDPAVDGYVAASDSRRDGLAAGFLEHHHHHH | not soluble |
| MGSDKIHHHHHHMKRQRLAIIDIGSNSIRLVINTINEHGHYQELYNFKTVARLSNHLDAQGNLTKEGTSILLTTLQKFRTLTEDHHCDRAIVVATAAMRKANNRKELLKLAEQETGFSIKLLSEYEEAYFGYLAIVNSTSIQDGITIDIGGGSTEITRFSNRKLLHYHSFPFGAITLYRDFFHSTDPSEEELASLQTFLESAFATLPWLQDAKDLPVIGIGGTARNLSLIHQRQTDYPLAGLHQYSFPAEELHSVTQMLQRLTSSEREGLDGLSKDRVDVIIPGTQAISSLVKTIGSSQFIMSRKGLRDGLFYSEILEQLNLECFPNVVEESFYQLYHQYEINLEHVKQVAKLATKLYEQLAPFYNGKLEHQQNLTLIHRAARVLYLGEHINPEASSQHTFYLLTNMSIDGLNHEERLALACVSSFKSKAQLLHMASPFMPLISKKQLKRFEFLGAILKLAYCLNRTRRHVIGKIGTIEAKRDALVLPLYYHYDLDPSFEQDYALKHVKHVEKVIKKTIELPFLPLSNFT | not soluble |
| MSTATRPSSSATTSVILENPVSQSQPTERLVLRLNRKKKKVSWKDGTVDNEFMQKKSSKKCCIFHKQKPFDEDDSEEEDDNNHHCDHNHEHSESGEASSSNDSKAVDMGHHHHHHSH | soluble |
| MRGSHHHHHHGIQMVSIAINGFGRIGRLVLRIALERKNIDVVAINDPFISVDYAAYMFKYDSTHGKYKGEVSHDGSNLIINGKKVAVFQEKDPATLPWGKLGVDIAVDSTGVFKELDSAQKHIDAGAKKVVITAPSKTAPMFVVGVNEDKYNGEKIVSNASCTTNCLAPIAKIINDEFGIEEGLMTTVHSITATQKTVDGPSHKDWRGGRTASGNIIPSSTGAAKAVGKVLPELQGKLTGMAFRVPTTDVSVVDLTVKLVKAATYDEIKAAVKKVSEGKLKDVVGYTEDAVVSSDFLGDTHSTIFDAAAGIQLSPKFVKLVAWYDNEYGYSTRVVDLVEHVA | soluble |
| MSTFKITIIGGGSSYTPELVDGLIQRIEQLPVTELALVDVEQGRQKVEIIAALTQRMLARHGLEQVKVSVHYSLDEAIRGARFVLTQFRVGQLPARAADERLGLKYNLLGQETTGIGGFAKALRTIPVMLDIAANVERLAPDAWIINFTNPAGIVTEAVSRYTKAKIIGLCNVPISMHHMIAKLLQAPYEDLQLRFAGLNHMVWVHEVLQRGKYVTADVLKMLCDGASLSMNNIKEAPWPPEFLQAMGAIPCPYHRYFYQTQDMLAEEMAAAAERGTRAEQVMQVEKELFALYADPHLDTKPEQLSFRGGSFYSEVALELIRAIHNNLGTQLVVNTTNRGAIRGLSDDSVVETNCIIDAKGAHPLTFGPLPVSMHGLTQQVKAYERLTIDAAVHGDRRSALLALVTNPLIANASIAQPLLEEVLQVNKPYLPQFSGL | not soluble |
